Test results taken from publication PMC6158740 (Nucleic Acids Research, 2018).

Key:
[1] = target: ComM (Vibrio cholerae, UniProt Q9KVV6); details: AMP-PNP, nonhydrolyzable analogue; pH 7.5, 37 °C
[2] = target: T1, ComM (Vibrio cholerae, UniProt Q9KVV6 1-507); test: EMSA
T1 sequence: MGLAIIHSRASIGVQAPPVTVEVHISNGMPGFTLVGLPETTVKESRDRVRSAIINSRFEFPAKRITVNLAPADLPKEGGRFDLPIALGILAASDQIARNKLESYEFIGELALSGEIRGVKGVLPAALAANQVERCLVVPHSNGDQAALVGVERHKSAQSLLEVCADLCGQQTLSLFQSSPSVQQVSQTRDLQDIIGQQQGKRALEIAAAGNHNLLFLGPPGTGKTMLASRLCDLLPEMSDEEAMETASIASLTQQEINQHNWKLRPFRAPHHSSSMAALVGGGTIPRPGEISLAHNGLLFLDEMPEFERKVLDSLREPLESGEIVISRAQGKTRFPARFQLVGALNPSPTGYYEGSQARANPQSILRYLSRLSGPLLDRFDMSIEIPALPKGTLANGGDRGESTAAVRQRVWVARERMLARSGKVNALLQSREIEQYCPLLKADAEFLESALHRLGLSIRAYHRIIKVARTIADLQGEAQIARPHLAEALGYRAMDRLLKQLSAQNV

With Nc1ncnc2c1ncn2[C@@H]1O[C@H](COP(=O)(O)OP(=O)(O)NP(=O)(O)O)[C@@H](O)[C@H]1O [AMP-PNP] the “three-strand branch migration assay, gel; oligomerization assay” value [1] was “This activity was inhibited when ComM was incubated with AMP-PNP”.

ATTCCGGGGATCCGTCGACCTGCAGTTCAGAAGCAGCTCCAGCCTACA (ssDNA) [BBC742 ssDNA probe]: binds [2].

B1: BBC742/BBC743 dsDNA probe (dsDNA)
DNA 1: ATTCCGGGGATCCGTCGACCTGCAGTTCAGAAGCAGCTCCAGCCTACA
DNA 2: TGTAGGCTGGAGCTGCTTCTGAACTGCAGGTCGACGGATCCCCGGAAT
B1: binds [2].
